Here are results for three molecules from article doi:10.1101/2025.11.29.691178 (bioRxiv, 2025).

The target in experiment [1] is T1, human biliverdin reductase B (BLVRB), recombinant, full length (human, UniProt P30043 1-206).
T1 sequence: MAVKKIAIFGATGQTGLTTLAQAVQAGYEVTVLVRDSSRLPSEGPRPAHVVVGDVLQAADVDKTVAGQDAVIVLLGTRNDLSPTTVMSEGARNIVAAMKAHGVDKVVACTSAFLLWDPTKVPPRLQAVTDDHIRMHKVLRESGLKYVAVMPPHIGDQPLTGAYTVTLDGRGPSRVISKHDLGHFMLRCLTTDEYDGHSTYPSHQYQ
Kind of experiment: NMR titration.

In experiment [2] the target is T2, Band 3 (SLC4A1), endogenous in human red blood cells (human (endogenous in RBCs), UniProt P02730 1-911).
T2 sequence: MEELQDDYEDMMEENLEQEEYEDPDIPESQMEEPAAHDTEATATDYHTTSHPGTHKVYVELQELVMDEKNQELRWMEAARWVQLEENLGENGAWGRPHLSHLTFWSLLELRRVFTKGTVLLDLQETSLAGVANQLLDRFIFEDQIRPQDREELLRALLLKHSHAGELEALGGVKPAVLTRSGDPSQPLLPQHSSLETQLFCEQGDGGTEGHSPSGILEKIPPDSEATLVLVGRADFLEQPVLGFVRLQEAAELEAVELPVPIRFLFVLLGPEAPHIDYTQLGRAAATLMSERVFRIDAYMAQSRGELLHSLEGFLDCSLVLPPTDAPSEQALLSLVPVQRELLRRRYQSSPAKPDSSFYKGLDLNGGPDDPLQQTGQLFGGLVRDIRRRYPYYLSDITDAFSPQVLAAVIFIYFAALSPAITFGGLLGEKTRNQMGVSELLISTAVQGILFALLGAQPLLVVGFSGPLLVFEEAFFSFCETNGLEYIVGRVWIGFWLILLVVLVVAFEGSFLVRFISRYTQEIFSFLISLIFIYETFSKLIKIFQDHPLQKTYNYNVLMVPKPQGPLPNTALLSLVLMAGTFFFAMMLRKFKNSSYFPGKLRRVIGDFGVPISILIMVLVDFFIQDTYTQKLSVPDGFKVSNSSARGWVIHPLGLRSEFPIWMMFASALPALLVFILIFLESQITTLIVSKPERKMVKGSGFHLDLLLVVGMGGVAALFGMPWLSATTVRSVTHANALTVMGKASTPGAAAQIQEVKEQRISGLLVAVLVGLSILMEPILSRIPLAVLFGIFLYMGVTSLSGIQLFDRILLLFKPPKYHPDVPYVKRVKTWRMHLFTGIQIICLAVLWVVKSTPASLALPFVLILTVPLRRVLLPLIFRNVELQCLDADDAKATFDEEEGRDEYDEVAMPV
Kind of experiment: cross-linking.

MEELQDDYEDMMEENLEQEEYEDPDIPESQ (domain or fragment) [Band 3 (SLC4A1) N-terminal residues 1-30, recombinant]: the binding result in experiment [1] is listed as “binds”.

B1: Band 3 (SLC4A1) N-terminal residues 1-56, recombinant (domain or fragment)
chain: MEELQDDYEDMMEENLEQEEYEDPDIPESQMEEPAAHDTEATATDYHTTSHPGTHK
In the case of B1, in experiment [1], the binding result is listed as “binds”.

B2: hemoglobin (deoxyhemoglobin tetramer), endogenous in human red blood cells (complex)
chain 1: not shown
chain 2: not shown
On to B2, for which the “fold change of cross-links, hypoxia against normoxia” value in experiment [2] is 3 fold.
